{
  "source": "patent US6368828",
  "about": "(US Dept. of Health and Human Services, dated 2002)",
  "proteins": {"B1": {"name": "endogenous murine Stat6 (other, UniProt P52633 1-837, looked up)", "chain": "MSLWGLISKMSPEKLQRLYVDFPQRLRHLLADWLESQPWEFLVGSDAFCYNMASALLSATVQRLQATAGEQGKGNSILPHISTLESIYQRDPLKLVATIRQILQGEKKAVIEEFRHLPGPFHRKQEELKFTTALGRLQHRVRETRLLRESLQQGAKTGQVSLQNLIDPPVNGPGPSEDLATMLQGTVGDLEATQALVLKRIQIWKRQQQLAGNGTPFEESLAGLQERCESLVEIYSQLQQEIGAASGELEPKTRASLISRLDEVLRTLVTSSFLVEKQPPQVLKTQTKFQAGVRFLLGLQFLGTSAKPPMVRADMVTEKQARELSLAQGPGTGVESTGEIMNNTVPLENSIPSNCCSALFKNLLLKKIKRCERKGTESVTEEKCAVLFSTSFTLGPNKLLIQLQALSLPLVVIVHGNQDNNAKATILWDNAFSEMDRVPFVVAERVPWEKMCETLNLKFMAEVGTSRGLLPEHFLFLAQKIFNDNSLSVEAFQHRCVSWSQFNKEILLGRGFTFWQWFDGVLDLTKRCLRSYWSDRLIIGFISKQYVTSLLLNEPDGTFLLRFSDSEIGGITIAHVIRGQDGSSQIENIQPFSAKDLSIRSLGDRIRDLAQLKNLYPKKPKDEAFRSHYKPEQMGKDGRGYVSTTIKMTVERDQPLPTPEPQMPAMVPPYDLGMAPDASMQLSSDMGYPPQSIHSFQSLEESMSVLPSFQEPHLQMPPNMSQITMPFDQPHPQGLLQCQSQEHAVSSPEPMLCSDVTMVEDSCLTQPVGGFPQGTWVSEDMYPPLMPPTEQDLTKLLLENQGEAGGSLGSQPLLQPSPYGQSGISLSHLDLRTNPSW", "notes": "Endogenous protein in FDC-P2 whole cell lysates; also called endogenous Stat6"}},
  "molecular_target": "the molecule itself",
  "assay": "DSG crosslinking of whole cell lysates; immunoprecipitation and immunoblot with anti-Stat6 serum",
  "description": "Effect of Stat6c on endogenous Stat6 dimerization. To elucidate the molecular mechanism of Stat6c's potent transcriptional […], several possibilities were considered. Because endogenous Stat6 tyrosine phosphorylation is only partly diminished by Stat6c, inhibition of IL-4-induced endogenous Stat6 association with IL-4Rα or JAK activation appeared unlikely. […] Therefore, crosslinking studies were performed to investigate whether Stat6c might effect endogenous Stat6 dimerization. Whole cell lysates from IL-4-treated FDC-P2 cells or Stat6 and Stat6c transfectants were incubated with disuccinimidyl glutarate (DSG).",
  "data": [
    {"protein": "B1", "values": [
      {"measurement": "binding result", "value": "binds"}
    ]}
  ]
}
